Data on one molecule can be found in paper PMC12888917, “Structure-based engineering of the midnolin-proteasome pathway for targeted protein degradation” (Protein & Cell, 2025).

The target of the assay is T1, full-length RPN1 (UniProt Q13200 1-908).
T1 construct: RPN1, full length, as isolated protein in the BLI assay
Briefly: BLI; full-length RPN1 and GST-tagged midnolin C-Helix (375–413). The settings on record: both partners purified. (In general: BLI is a label-free optical method that tracks binding on a fibre tip over time.)

T1 sequence (Q13200 whole entry): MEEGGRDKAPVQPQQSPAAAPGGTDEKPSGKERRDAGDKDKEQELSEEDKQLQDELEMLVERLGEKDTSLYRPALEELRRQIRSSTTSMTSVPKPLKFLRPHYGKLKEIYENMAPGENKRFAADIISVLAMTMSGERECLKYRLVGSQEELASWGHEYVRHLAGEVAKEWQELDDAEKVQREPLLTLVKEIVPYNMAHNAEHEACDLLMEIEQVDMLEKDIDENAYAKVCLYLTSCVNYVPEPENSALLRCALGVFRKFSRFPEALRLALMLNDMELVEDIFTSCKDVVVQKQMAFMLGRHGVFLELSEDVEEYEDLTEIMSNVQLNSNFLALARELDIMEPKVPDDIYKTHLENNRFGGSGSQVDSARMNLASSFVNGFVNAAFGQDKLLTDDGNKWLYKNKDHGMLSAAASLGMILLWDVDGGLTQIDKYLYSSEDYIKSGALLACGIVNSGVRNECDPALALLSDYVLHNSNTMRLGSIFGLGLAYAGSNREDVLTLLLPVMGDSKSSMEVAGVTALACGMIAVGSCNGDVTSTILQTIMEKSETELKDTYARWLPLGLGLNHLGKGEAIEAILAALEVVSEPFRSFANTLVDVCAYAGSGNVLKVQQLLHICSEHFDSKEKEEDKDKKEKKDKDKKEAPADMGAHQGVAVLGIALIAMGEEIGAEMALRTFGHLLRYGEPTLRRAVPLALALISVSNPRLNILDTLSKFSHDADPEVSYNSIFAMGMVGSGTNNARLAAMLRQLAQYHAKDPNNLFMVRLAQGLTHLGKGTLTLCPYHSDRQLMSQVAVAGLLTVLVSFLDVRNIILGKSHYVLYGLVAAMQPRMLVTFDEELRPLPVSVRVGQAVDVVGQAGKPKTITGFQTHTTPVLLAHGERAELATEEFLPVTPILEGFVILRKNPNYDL

B1: GST-tagged midnolin C-Helix (375–413) (domain or fragment, human, UniProt Q504T8 375-413, looked up)
chain: PPGDRLRQTENRATRCKVERLQLLLQQKRLRRKARRDAR
notes: also called MIDN C-Helix
Usually Kd stands for the constant that tells how readily two partners part at equilibrium. Read a low Kd as a tighter complex. B1 returned a Kd of roughly 88.5 nM.
